Data on four molecules can be found in patent publication US20160347844A1 (Dana-Farber, published 2016).

The chains are these.
T1: mouse RGMb on mRGMb transfected 300 cells (mouse, UniProt Q7TQ33 49-415)
T1 construct: also called 300-mRGMb cells; DRAGON
T1 sequence: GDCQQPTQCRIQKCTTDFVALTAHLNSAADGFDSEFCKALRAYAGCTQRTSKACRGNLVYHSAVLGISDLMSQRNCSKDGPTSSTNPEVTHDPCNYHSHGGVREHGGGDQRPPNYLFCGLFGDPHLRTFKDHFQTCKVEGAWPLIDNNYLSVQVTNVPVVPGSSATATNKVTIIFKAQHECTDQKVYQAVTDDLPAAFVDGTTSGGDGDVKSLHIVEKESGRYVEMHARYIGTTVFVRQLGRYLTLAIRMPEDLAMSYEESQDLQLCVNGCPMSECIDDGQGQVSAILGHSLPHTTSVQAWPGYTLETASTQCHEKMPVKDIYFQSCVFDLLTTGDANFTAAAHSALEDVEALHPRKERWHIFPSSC

T2: recombinant mRGMb-HIS (R&D) (mouse, UniProt Q7TQ33 49-415, limits assumed)
T2 construct: Bought (R&D); also called monomeric mRGMb-HIS; not shown: HIS tag
T2 sequence: T1 sequence

B1: mouse PD-L2 on mPD-L2 transfected 300 cells (ligand, UniProt Q9WUL5 20-247, looked up)
chain: LFTVTAPKEVYTVDVGSSVSLECDFDRRECTELEGIRASLQKVENDTSLQSERATLLEEQLPLGKALFHIPSVQVRDSGQYRCLVICGAAWDYKYLTVKVKASYMRIDTRILEVPGTGEVQLTCQARGYPLAEVSWQNVSVPANTSHIRTPEGLYQVTSVLRLKPQPSRNFSCMFWNAHMKELTSAIIDPLSRMEPKVPRTWPLHVFIPACTIALIFLAIVIIQRKRI
notes: whole, on cells; also called 300-mPD-L2
B2: mPD-L2-hIgG (R&D) (Fc fusion, mouse, UniProt Q9WUL5 20-219, looked up)
chain: LFTVTAPKEVYTVDVGSSVSLECDFDRRECTELEGIRASLQKVENDTSLQSERATLLEEQLPLGKALFHIPSVQVRDSGQYRCLVICGAAWDYKYLTVKVKASYMRIDTRILEVPGTGEVQLTCQARGYPLAEVSWQNVSVPANTSHIRTPEGLYQVTSVLRLKPQPSRNFSCMFWNAHMKELTSAIIDPLSRMEPKVPR
notes: The text of the result says only 'PD-L2-Ig'; also called PD-L2-Ig; mPD-L2-Ig; not shown: human IgG part of the bought fusion protein
B3: recombinant mouse BMP-4 (R&D) (ligand)
chain: SPKHHPQRSRKKNKNCRRHSLYVDFSDVGWNDWIVAPPGYQAFYCHGDCPFPLADHLNSTNHAIVQTLVNSVNSSIPKACCVPTELSAISMLYLDEYDKVVLKNYQEMVVEGCGCR
notes: Bought; also called mBMP-4
B4: recombinant mouse BMP-2 (GIBCO) (ligand)
chain: QAKHKQRKRLKSSCKRHPLYVDFSDVGWNDWIVAPPGYHAFYCHGECPFPLADHLNSTNHAIVQTLVNSVNSKIPKACCVPTELSAISMLYLDENEKVVLKNYQDMVVEGCGCR
notes: Bought; also called mBMP-2

For assay [1], the target named is T1, mouse RGMb on mRGMb transfected 300 …. The assay can be described thus: cell conjugation assay / flow cytometry / ELISA of FIG. 1. In general terms: A flow cytometer gives signals particle by particle.
Assay [2] deals with T2, recombinant mRGMb-HIS (R&D). Nature of the assay: ELISA, PD-L2-Ig captured through mRGMb-HIS on BMP-2/4-coated plate, anti-hIgG-HRP. As for the experimental part: (§1) To determine if RGMb binds PD-L2 and BMP-2/4 simultaneously, 96-well ELISA plates were coated with BMP-2/4 as above. mPD-L2-hIgG1/IgA, mPD-L2-hIgG (R&D), mPD-L1-hIgG (R&D) or control-Ig fusion proteins at 10 µg/ml were preincubated with 10 μg/ml mRGMb-HIS (R&D) or buffer alone for 15 min. at room temperature (RT), then added to the plates and incubated for 1h at 37° C. Alternatively, 10 μg/ml mRGMb-HIS (R&D) or buffer alone was added first to the plates and incubated for 1h at 37° C. After wash, mPD-L2-Ig or control-Ig fusion proteins were added and incubated for 1 h at 37° C. Fab₂ goat anti-hIgG-HRP (Jackson ImmunoResearch Laboratories) at 1:10000 was used for detection.
For orientation: ELISA stands for enzyme-linked immunosorbent assay.

For assay [3] the target is unchanged. The assay can be described thus: ELISA, BMP-4-coated plate, mRGMb-HIS plus PD-L2-Ig, anti-hIgG-HRP.
Source text: (§2) FIG. 1 includes nine panels, identified as panels (A), (B), (C), (D), (E), (F), (G), (H), and (I), which show the blocking capacities of RGMb and PD-L2 mAbs and a model for RGMb, PD-L2, Neogenein, BMP, and BMP-receptor interactions. Panels A-C show the capacities of RGMb mAbs and PD-L2 mAbs to block RGMb binding to PD-L2 or to block PD-1 to PD-L2, as determined by cell conjugation assay. […] Binding of mRGMb-HIS was detected by anti-penta-HIS-HRP. […] Binding of Ig fusion proteins was detected with anti-hIgG-HRP. Similar results were also seen for BMP-2. […] Data shown in Panels 1A-1C and 1F-1H are representative of 2 or more independent experiments.
as §1

For assay [4], the target named is B2. Nature of the assay: ELISA, PD-L2-Ig added to BMP-4-coated plate without RGMb, anti-hIgG-HRP (FIG. 1E).
Source text: as §2, §1

The target in assay [5] is B2. Nature of the assay: ELISA, PD-L2-Ig added to BMP-2-coated plate without RGMb, anti-hIgG-HRP. On the procedure: as §1
Assay [6] has as its target T2, recombinant mRGMb-HIS (R&D). Nature of the assay: ELISA, BMP-2-coated plate, mRGMb-HIS plus PD-L2-Ig, anti-hIgG-HRP. On the procedure: as §1

Turning to B1, the binding result in assay [1] is on record as “binds”. With B2, the binding result in assay [2] is “binds”. B3: the binding result is reported as “binds” in assay [3] and “no binding” in the assay with mPD-L2-hIgG (R&D) [4]. For the molecule B4, the binding result with mPD-L2-hIgG (R&D) [5] is “no binding”; in assay [6], “binds”.
